Laboratory results from paper PMC3394726.

Target: chymotrypsin (bovine)

Substance: scabies mite serpin SMSB3, wild type (from UniProt A0A131ZZL5 20-427) (natural protein)
- stoichiometry of inhibition (SI) from residual chymotrypsin activity at a 2-120:1 molar excess of SMSB3: 12.9
